Data from paper PMC7857403.

Experiments:
[1] = molecular target: SARS-CoV-2 spike receptor binding domain (SARS-CoV-2) (UniProt P0DTC2); experiment: BLI
[2] = molecular target: SARS-CoV-2 spike receptor binding domain (SARS-CoV-2) (UniProt P0DTC2)

Substance | Kd [1] [nM] | other [2] [pM]
LCB1 (designed binder) | < 1 | 23.5
LCB3 (designed binder) | < 1 | –
